The target of experiment [1] is Human insulin (Actrapid) (human). As to the kind of experiment: SPR (Biacore 3000), insulin 0.25-10 µM over C-terminally immobilized insulin; global fit, analyte with two sites competing for one site on the chip; slow off rate. A general note: In SPR one partner is held on a chip, and binding of the other changes the refractive index at the surface.
For experiment [2] the target is unchanged. Put plainly: SPR (Biacore 3000), insulin 0.25-10 µM over C-terminally immobilized insulin; global fit, analyte with two sites competing for one site on the chip; rapid off rate.

Broadly, the Kd is the constant that tells how readily two partners part at equilibrium. Low readings indicate a tighter complex, high ones a looser complex.

Consider “Human insulin (Actrapid) (ligand; other documents disagree on this pair)”, for which the Kd was determined as 2.71 µM in experiment [1] and 4.65 µM in experiment [2].

Values taken from patent US20100216693A1, “COMPOSITIONS AND METHODS OF TREATING DIABETES” (priority 2005, published 2010).
